Experimental data as given in article PMC8323339 (Immunity, 2021).
Read-outs that look alike come from different tables or passages of the source.

B1: C099 IgG (antibody, V domains shown)
VH: EVQLVESGGGLIQPGGSLRLSCAASGITVSSNYMSWVRQAPGKGLEWVSVMYAGGSTFYADSVKGRFTISRDDSKNTLFLQMNSLRAEDTAIYYCARDLYSSGGTDIWGQGTMVTVSS
VL: EIVLTQSPGTLSLSPGERATLSCRASQSIGSSYLAWYQQKPGLAPRLLIYGASRRATGIPDKFSGSGSGADFTLTISRLEPEDFAVYYCQQYGSSPGTFGQGTKVEIK
B2: C099 Fab (Fab, V domains shown)
VH: EVQLVESGGGLIQPGGSLRLSCAASGITVSSNYMSWVRQAPGKGLEWVSVMYAGGSTFYADSVKGRFTISRDDSKNTLFLQMNSLRAEDTAIYYCARDLYSSGGTDIWGQGTMVTVSS
VL: EIVLTQSPGTLSLSPGERATLSCRASQSIGSSYLAWYQQKPGLAPRLLIYGASRRATGIPDKFSGSGSGADFTLTISRLEPEDFAVYYCQQYGSSPGTFGQGTKVEIK
B3: C549 (antibody, V domains shown)
VH: QVQLVQSGAEVKKPGSSVKVSCKASGGTFSTSAISWVRQAPGQGLEWMGGIIPFFGTPNYAQKFQGRVTIIADESTTTAYMELSGLRFEDSAVYYCARREPYGPRDYYYFFGMDVWGPGTTVTVSS
VL: QSALTQPPFASASLGASVTLTCTLSSDYSYYKVDWYQQRPGKGPRFVIRVGPGGIVGSKGDGFPDRFSVLGSGLNRSLTINNIQEEDEGDYHCGADEGSGGTFVGVFGGGTKLTV
B4: C548 IgG (antibody, V domains shown)
VH: QVQLVQSGAEVKKPGSSVKVSCKASGGTFSSYAISWVRQAPGQGLEWMGGIIPIFGTANYAQKFQGRVTITADESTSTAYMELSSLRSEDTAVYYCARREAYGPRDYYYYYGMDVWGQGTTVTVSS
VL: QSALTQPPSASASLGASVTLTCTLSSGYSNYKVDWYQQRPGKGPRFVMRVGTGGIVGSKGDGIPDRFSVLGSGLNRYLTIKNIQEEDESDYHCGADQGSGSNFVGVFGGGTKLTV
B5: C080 IgG (antibody, V domains shown)
VH: EVQLVQSGAEVKKPGESLNISCKASGYSFTIYWIAWVRQLPGKGLEWMGIIYPGDSDTRYSPSFQGQVTISADKSISTAYLQWRSLKASDSAVYYCARGVAVDWYFDLWGRGTLVTVSS
VL: QSVLTQPPSVSGAPGQRVTISCAGSSSNIGAGFDVYWYQQLPGTAPKLLIYGNNNRPSGVPDRFSGSKSGTSASLAITGLQAEDEADYYCQSSGSVLSDLYVFGTGTKVTVL

How the values were obtained:
[1] = target: T1, SARS-CoV-2 Spike receptor-binding domain (RBD), wild type, as used for BLI (SARS-CoV-2, wild type, UniProt P0DTC2); assay: BLI
[2] = target: SARS-CoV-2 RBD, as used for crystallization (SARS-CoV-2, wild type, UniProt P0DTC2); assay: crystal structure
[3] = target: T1, SARS-CoV-2 Spike receptor-binding …

Row | Binder | binding result [1] | also measured
1 | B1 | binds | –
2 | B2 | – | binding result [2]: binds
3 | B3 | – | binding result [3]: binds
4 | B4 | binds | –
5 | B5 | binds | –
